What is called EC50 is the concentration that produces a half-maximal response.

Assay [1] deals with PD-L1 (human) (UniProt Q9NZQ7). As to the kind of experiment: flow cytometry, CHO cells expressing huPD-L1. Background: Flow cytometry measures light scatter and fluorescence of single cells or particles in a stream.
For assay [2], the target named is human CTLA-4 (human) (UniProt P16410). As to the kind of experiment: flow cytometry, CHO cells expressing huCTLA-4.
Target sequence in this assay (P16410 36-223): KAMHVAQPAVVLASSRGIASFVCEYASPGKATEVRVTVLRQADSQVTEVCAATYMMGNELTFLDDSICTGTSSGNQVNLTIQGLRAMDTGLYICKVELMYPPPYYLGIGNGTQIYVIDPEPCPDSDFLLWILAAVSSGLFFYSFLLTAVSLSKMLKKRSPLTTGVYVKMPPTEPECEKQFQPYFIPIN
The target in assay [3] is CD28 (human) (UniProt P10747). As to the kind of experiment: flow cytometry, Jurkat/IL2 reporter cells (CD28).
Assay [4] addresses CD28 (human) (UniProt P10747).
The target in assay [5] is human CTLA-4 (human) (UniProt P16410). Briefly: flow cytometry, CHO cells stably expressing CTLA4.
Assay [6] deals with PD-L1 (human) (UniProt Q9NZQ7). As to the kind of experiment: flow cytometry, CHO cells stably expressing PD-L1.
In assay [7] the target is CD28 (human) (UniProt P10747). As to the kind of experiment: flow cytometry, Jurkat cells (CD28).
For assay [8], the target named is CD28 (human) (UniProt P10747). This is another data set of the same source.
The target of assay [9] is human CTLA-4 (human) (UniProt P16410). As to the kind of experiment: flow cytometry, CHO cells expressing CTLA4.
Target sequence in this assay (P16410 36-223): as above
Assay [10] addresses PD-L1 (human) (UniProt Q9NZQ7). As to the kind of experiment: flow cytometry, CHO cells expressing PD-L1.
Target sequence in this assay (Q9NZQ7 19-290): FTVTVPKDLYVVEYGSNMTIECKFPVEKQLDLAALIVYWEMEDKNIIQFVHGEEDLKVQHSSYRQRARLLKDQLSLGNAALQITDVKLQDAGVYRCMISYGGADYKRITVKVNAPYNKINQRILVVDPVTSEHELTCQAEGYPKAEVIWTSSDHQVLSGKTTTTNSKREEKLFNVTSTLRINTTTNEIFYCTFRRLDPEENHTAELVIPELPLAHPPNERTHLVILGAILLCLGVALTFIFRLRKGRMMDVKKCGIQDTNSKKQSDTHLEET

wild-type CD80 IgV-Fc (inert), as in Example 12 (Fc fusion), sequence (chain): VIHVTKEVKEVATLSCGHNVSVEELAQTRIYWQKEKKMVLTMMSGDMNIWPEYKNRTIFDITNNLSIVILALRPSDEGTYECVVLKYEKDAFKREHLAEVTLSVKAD
wild-type CD80 IgV (SEQ ID NO: 150)-Fc (inert) with GSG4S linker (Fc fusion), sequence (chain): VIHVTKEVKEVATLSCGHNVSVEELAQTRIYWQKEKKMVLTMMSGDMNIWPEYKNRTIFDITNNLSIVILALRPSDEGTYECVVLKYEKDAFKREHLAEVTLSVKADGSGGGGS

In turn, “variant CD80 IgV-Fc E35D/M47V/V68M (Fc fusion)” had an MFI at 33.3 nM in assay [1] of 16600 MFI.
Consider variant CD80 IgV-Fc E35D (Fc fusion), for which the MFI at 33.3 nM in [1] was found to be 2580 MFI; in [2], 42900 MFI; in assay [3], 134 MFI.
In the case of “variant CD80 IgV-Fc V68M/K89N (Fc fusion)”, the results for the MFI at 33.3 nM in assay [1] and in assay [2] were 538 MFI and 2330 MFI, respectively.
Consider “CD80 E35D/M43L/L70M IgV-Fc (inert) (Fc fusion)”, for which, in [4], the Jurkat/IL2 reporter RLU at 50 nM, CHO/OKT3 aAPC without PD-L1 was determined as 515 RLU.
On to variant CD80 IgV-Fc V68M (Fc fusion), for which the MFI at 33.3 nM in assay [1] is 118 MFI; in assay [2], 568 MFI; in assay [3], 37.9 MFI.
On the same counts, the results for variant CD80 IgV-Fc L85Q (Fc fusion) are 97 MFI, 3000 MFI and 35 MFI.
On to “CD80 IgV-Fc E35D/M47I/T62S/L85Q/E88D (Fc fusion)”, for which the MFI at 33.3 nM in assay [5] is 8910 MFI; in [6] it was 8420 MFI.
“CD80 (E35D/D46E/M47V/V68M/D90G/K93E) ECD-Fc (Fc fusion)” came in with an EC50 in [5] of 10.5 nM. The results for the MFI at 66.7 nM in [5] and in [6] were 24600 and 287, respectively.
With “variant CD80 IgV-Fc (inert) H18V/A26P/E35D/M47V/V68L/A71G (Fc fusion)”, the figures for the MFI at 33.3 nM in [5] and in assay [6] were 13700 MFI and 55400 MFI, respectively.
As to “variant CD80 IgV-Fc D46V/V68M/L85Q (Fc fusion)”, the MFI at 33.3 nM in assay [1] came out at 4170 MFI; in assay [2], 7570 MFI.
As to “wild-type CD80 IgV (SEQ ID NO: 150)-Fc (inert) with GSG4S linker (Fc fusion)”, in assay [6], the MFI at 33.3 nM came out at 47 MFI.
As to “variant CD80 IgV-Fc D46V/M47L (Fc fusion)”, the results for the MFI at 33.3 nM in assay [1] and in assay [2] were 3900 MFI and 49700 MFI, respectively.
With CD80 IgV-Fc deltaE10-A98 (Fc fusion), the MFI at 33.3 nM in assay [7] was determined as 15 MFI; in assay [5], 125 MFI; in assay [6], 45 MFI.
The corresponding values for “variant CD80 IgV-Fc (inert) H18F/A26H/E35D/M47L/V68M/A71G/D90G (Fc fusion)” are 8390 MFI, 16400 MFI and 20700 MFI.
For the substance “variant CD80 IgV-Fc E35D/D46V/M47L/V68M (Fc fusion)”, the MFI at 33.3 nM in [1] was 29300 MFI; in assay [2] it was 34300 MFI.
Take variant CD80 IgV-Fc N48K (Fc fusion): the MFI at 33.3 nM came out at 481 MFI in assay [1], 4950 MFI in assay [2] and 60.1 MFI in assay [3].
For “CD80 IgV-Fc H18Y/E35D/M47I/V68M/A71G/R94L (Fc fusion)”, the MFI at 33.3 nM in assay [7] was determined as 1900 MFI; in [6], 14500 MFI.
As for “variant CD80 IgV-Fc (inert) H18L/E35D/M47V/V68M/A71G/D90G (Fc fusion)”, the MFI at 33.3 nM is 6350 MFI in [7], 20300 MFI in [5] and 64800 MFI in assay [6].
Take variant CD80 IgV-Fc K89N (Fc fusion): the MFI at 33.3 nM in [1] was determined as 52.8 MFI; in assay [2], 944 MFI; in assay [3], 56.3 MFI.
As to “wild-type CD80 ECD-Fc (inert), as in Example 12 (Fc fusion)”, the MFI at 33.3 nM amounted to 57.8 MFI in assay [7] and 161 MFI in [6].
On to “variant CD80 IgV-Fc (inert) H18V/A26R/E35D/M47L/V68M/A71G/D90G (Fc fusion)”, for which the figures for the MFI at 33.3 nM in assay [7], in assay [5] and in assay [6] were 9620 MFI, 23200 MFI and 73200 MFI, respectively.
For the substance “variant CD80 IgV-Fc M47V/N48K/V68M/K89N (Fc fusion)”, in [1], the MFI at 33.3 nM came out at 23700 MFI.
In the case of “wild-type CD80 IgV-Fc (inert), as in Example 12 (Fc fusion)”, the MFI at 33.3 nM in assay [7] is 102 MFI; in assay [5], 1380 MFI; in assay [6], 165 MFI.
Consider “variant CD80 IgV-Fc M47L/V68M/L85Q (Fc fusion)”, for which the MFI at 33.3 nM is 4040 MFI in assay [1], 11100 MFI in assay [2] and 60.9 MFI in assay [3].
For the substance “Wildtype CD80 ECD-Fc (effector Fc, Example 31) (Fc fusion)”, the MFI at 66.7 nM was 120 in assay [7], 25300 in assay [5] and 104 in [6]. Besides, the EC50 in assay [5] was determined as 4 nM.
As for “variant CD80 IgV-Fc (inert) H18R/A26P/E35D/D46N/M47V/V68M/A71G/D90P (Fc fusion)”, the MFI at 33.3 nM in assay [5] was 17300 MFI; in [6], 29300 MFI.
On to WT IgG1 Fc Control, for which the IL-2 release, primary T cells + K562/OKT3 (No PD-L1), 100 nM in [8] was determined as 6260.
Regarding “CD80 (S21P/L70Q/D90G/I118V/T120S/T130A) ECD-Fc (Fc fusion)”, the MFI at 66.7 nM in assay [7] turned out to be 282; in assay [6], 103. The concentration for a half-maximal effect (EC50) in [5] stood at 8.8 nM.
For “variant CD80 IgV-Fc E35D/D46V/M47V/V68M/K89N (Fc fusion)”, the results for the MFI at 33.3 nM in [1] and in [3] were 21600 MFI and 2120 MFI, respectively.
For the substance “variant CD80 IgV-Fc D46V/M47L/V68M/L85Q (Fc fusion)”, the MFI at 33.3 nM in assay [1] worked out at 29700 MFI; in [2], 32500 MFI.
On the same counts, the results for “variant CD80 IgV-Fc E35D/D46V (Fc fusion)” are 3970 MFI and 50100 MFI.
Turning to “CD80 E35D/M47V/N48K/V68M/K89N IgV-Fc, GS(G4S)3 linker (Fc fusion)”, the MFI at 33.3 nM in [7] amounted to 2110 MFI; in assay [6], 24200 MFI.
As for “variant CD80 IgV-Fc (inert) H18V/A26N/E35D/M47V/V68M/A71G (Fc fusion)”, the MFI at 33.3 nM is 22400 MFI in assay [5] and 68200 MFI in assay [6].
In turn, “variant CD80 IgV-Fc E35D/V68M/K89N (Fc fusion)” gave an MFI at 33.3 nM in assay [2] of 24800 MFI.
In the case of “CD80 E35D/M47V/N48K/V68M/K89N IgV-Fc, GS(G4S)5 linker (Fc fusion)”, the MFI at 33.3 nM in [6] is 22700 MFI.
For the substance “CD80 IgV-Fc Q33R/M47V/T62N/A71G (Fc fusion)”, the MFI at 33.3 nM in [5] came to 308 MFI; in assay [6], 12200 MFI.
Consider “CD80 (A91G/I118V/T120S/T130A) ECD-Fc (Fc fusion)”, for which the MFI at 66.7 nM worked out at 720 in assay [7], 24800 in assay [5] and 107 in [6]. The EC50 in [5] came to 4.3 nM.
Consider WT CD80 ECD-Fc (effector) (Fc fusion), for which, in assay [8], the IL-2 release, primary T cells + K562/OKT3 (No PD-L1), 100 nM was determined as 23100 and the IL-2 release, primary T cells + K562/OKT3/PD-L1, 100 nM worked out at 8390.
Consider WT CD80 IgV-Fc (effector) (Fc fusion), for which, in assay [8], the IL-2 release, primary T cells + K562/OKT3 (No PD-L1), 100 nM was found to be 6200.
For Fc control (Example 24), the Fold change to WT CD80 in assay [7] was 0.2 fold; in [5], 0 fold; in assay [6], 1.8 fold. For the same substance, the MFI at 11.1 nM amounted to 26 MFI in assay [7], 106 MFI in assay [5] and 158 MFI in assay [6].
Take “CD80 E35D/D46V/M47L/V68M/L85Q/E88D IgV-Fc, GS(G4S)3 linker (Fc fusion)”: the MFI at 33.3 nM in assay [7] amounted to 267 MFI; in assay [6], 22600 MFI.
As to “CD80 (E88D/K89R/D90K/A91G/F92Y/K93R) ECD-Fc (Fc fusion)”, the MFI at 66.7 nM in assay [7] worked out at 4050; in assay [5], 26400; in assay [6] it was 108. The EC50 in assay [5] stood at 3.6 nM.
As for “WT CD80 ECD-Fc (Abcam) (from UniProt P33681) (Fc fusion)”, the MFI at 33.3 nM in [1] worked out at 128 MFI; in [3] it was 709 MFI.
Turning to “variant CD80 IgV-Fc E35D/D46V/V68M/L85Q (Fc fusion)”, the MFI at 33.3 nM in assay [1] was found to be 23600 MFI; in assay [2], 32200 MFI.
Consider “variant CD80 IgV-Fc E35D/N48K/V68M/K89N (Fc fusion)”, for which the MFI at 33.3 nM in assay [1] came out at 17400 MFI; in assay [3], 1530 MFI.
Consider “CD80 IgV-Fc E24D/Q27R/E35D/T41S/M47V/L85Q (Fc fusion)”, for which the MFI at 33.3 nM came to 66 MFI in [7], 13900 MFI in assay [5] and 2860 MFI in [6].
As to “variant CD80 IgV-Fc N48K/K89N (Fc fusion)”, the MFI at 33.3 nM in assay [2] came out at 4370 MFI; in [3], 170 MFI.
On to “variant CD80 IgV-Fc (inert) H18Y/A26N/E35D/M47F/V68M/A71G/D90G (Fc fusion)”, for which the MFI at 33.3 nM in assay [7] is 82.2 MFI; in assay [6], 26500 MFI.
For the substance “CD80 E35D/D46E/M47L/V68M/T79M/L85M/L97Q IgV-Fc (Fc fusion)”, the Fold change to WT CD80 in [7] was 0.5 fold; in [10], 89.7 fold. Moreover, the results for the MFI at 33.3 nM in [7], in assay [9] and in assay [10] were 14 MFI, 96 MFI and 4620 MFI, respectively.
In [7], “WT CD80 ECD-Fc (R&D Systems) (Fc fusion)” had an EC50 of 164 nM and an MFI at 11.1 nM of 139 MFI. In assay [6], this substance yielded an EC50 of 31.2 nM and an MFI at 11.1 nM of 86 MFI.
As for “variant CD80 IgV-Fc (inert) H18V/A26G/E35D/M47V/V68M/A71G/D90G (Fc fusion)”, the MFI at 33.3 nM was found to be 8190 MFI in assay [7], 25400 MFI in [5] and 66200 MFI in [6].
As for “variant CD80 IgV-Fc N48K/V68M/K89N (Fc fusion)”, the MFI at 33.3 nM in assay [1] came out at 11500 MFI; in assay [2], 19100 MFI.
Take “variant CD80 IgV-Fc (inert) A26P/E35D/M47I/V68M/A71G/D90G (Fc fusion)”: the MFI at 33.3 nM in assay [7] worked out at 8190 MFI; in [5], 19800 MFI.

Source of the values: patent US20220177587A1, “METHODS AND USES OF VARIANT CD80 FUSION PROTEINS AND RELATED CONSTRUCTS” (Alpine Immune Sciences, Inc., priority 2018, published 2022).
